The values that follow come from patent US20200392203A1 (YEDA RESEARCH AND DEVELOPMENT, published 2020).

Test [1] deals with native spike complex (glycoprotein complex, GPC) of Junin virus (JUNV) (Junin virus (JUNV)).
For test [2], the target named is native spike complex (glycoprotein complex, GPC) of Sabia virus (SABV) (Sabia virus (SABV)).
Test [3] deals with GP1GTOV-Fc (GP1 domain of Guanarito virus fused at its C' terminus to an antibody Fc portion) (Guanarito virus (GTOV)) (UniProt Q8AYW1). The test can be described thus: SPR (Biacore T200), single-cycle kinetics; […]; 1:1 model fit. A general note: SPR reads the build-up and loss of mass on a sensor chip optically.
The target in test [4] is GP1WWAV-Fc (GP1 domain of Whitewater Arroyo virus fused at its C' terminus to an antibody Fc portion) (Whitewater Arroyo virus (WWAV)) (UniProt Q911P0). Nature of the test: SPR (Biacore T200), single cycle kinetics; […]; 1:1 model.
GP1WWAV-Fc (GP1 domain of Whitewater Arroyo virus fused at its C' terminus to an antibody Fc portion) (Whitewater Arroyo virus (WWAV)), sequence (Q911P0 87-241): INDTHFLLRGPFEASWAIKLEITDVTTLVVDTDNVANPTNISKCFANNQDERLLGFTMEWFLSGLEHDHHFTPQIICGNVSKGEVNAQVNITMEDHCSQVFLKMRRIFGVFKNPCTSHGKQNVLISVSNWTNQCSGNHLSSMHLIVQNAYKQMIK

native spike complex (glycoprotein complex, GPC) of Sabia virus (SABV) (Sabia virus (SABV)), sequence (Q90037 2-58, chain 1 of 3): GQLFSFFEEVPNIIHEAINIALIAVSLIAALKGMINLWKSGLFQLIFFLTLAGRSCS
native spike complex (glycoprotein complex, GPC) of Sabia virus (SABV) (Sabia virus (SABV)), sequence (Q90037 59-254, chain 2 of 3): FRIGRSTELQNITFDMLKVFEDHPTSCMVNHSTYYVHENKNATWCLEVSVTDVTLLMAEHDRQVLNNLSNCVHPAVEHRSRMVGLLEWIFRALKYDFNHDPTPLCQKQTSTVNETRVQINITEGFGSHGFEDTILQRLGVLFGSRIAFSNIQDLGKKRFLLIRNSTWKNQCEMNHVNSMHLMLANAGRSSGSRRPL
native spike complex (glycoprotein complex, GPC) of Sabia virus (SABV) (Sabia virus (SABV)), sequence (Q90037 255-488, chain 3 of 3): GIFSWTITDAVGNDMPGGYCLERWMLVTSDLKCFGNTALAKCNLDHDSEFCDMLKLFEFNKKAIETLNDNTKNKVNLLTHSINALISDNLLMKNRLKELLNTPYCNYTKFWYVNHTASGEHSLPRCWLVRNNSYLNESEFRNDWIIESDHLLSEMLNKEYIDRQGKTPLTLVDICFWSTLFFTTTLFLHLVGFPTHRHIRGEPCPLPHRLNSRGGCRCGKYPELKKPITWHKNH
GP1GTOV-Fc (GP1 domain of Guanarito virus fused at its C' terminus to an antibody Fc portion) (Guanarito virus (GTOV)), sequence (Q8AYW1 87-240): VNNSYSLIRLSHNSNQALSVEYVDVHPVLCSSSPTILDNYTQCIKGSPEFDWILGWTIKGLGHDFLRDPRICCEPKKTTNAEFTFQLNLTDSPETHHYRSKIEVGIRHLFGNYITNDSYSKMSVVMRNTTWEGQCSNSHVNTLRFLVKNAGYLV
native spike complex (glycoprotein complex, GPC) of Junin virus (JUNV) (Junin virus (JUNV)), sequence (P26313 2-58 limits assumed, chain 1 of 3): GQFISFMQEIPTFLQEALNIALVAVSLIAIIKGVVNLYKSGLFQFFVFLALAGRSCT
native spike complex (glycoprotein complex, GPC) of Junin virus (JUNV) (Junin virus (JUNV)), sequence (P26313 59-251 limits assumed, chain 2 of 3): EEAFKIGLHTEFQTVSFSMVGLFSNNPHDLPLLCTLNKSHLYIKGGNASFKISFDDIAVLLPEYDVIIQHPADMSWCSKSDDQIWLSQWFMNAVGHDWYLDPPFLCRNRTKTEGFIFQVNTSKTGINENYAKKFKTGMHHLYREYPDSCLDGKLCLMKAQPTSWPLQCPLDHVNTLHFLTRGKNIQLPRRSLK
native spike complex (glycoprotein complex, GPC) of Junin virus (JUNV) (Junin virus (JUNV)), sequence (P26313 252-485 limits assumed, chain 3 of 3): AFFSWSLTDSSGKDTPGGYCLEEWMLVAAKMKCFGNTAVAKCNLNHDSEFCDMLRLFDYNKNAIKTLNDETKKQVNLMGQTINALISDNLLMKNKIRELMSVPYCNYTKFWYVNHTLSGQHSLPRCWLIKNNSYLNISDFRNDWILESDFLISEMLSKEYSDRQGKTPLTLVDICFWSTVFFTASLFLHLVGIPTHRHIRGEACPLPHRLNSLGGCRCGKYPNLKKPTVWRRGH

As to “Arenacept (sAD fused at its C'-terminus to an Fc portion of IgG1) (Fc fusion)”, the pseudovirus neutralisation (luciferase, hTfR1-overexpressing HEK293 cells), IC50 was determined as 1.5 µg/mL in test [1] and 3.5 µg/mL in test [2].

B1: soluble apical domain (sAD) of Neotoma albigula (White-throated woodrat) TfR1 (receptor)
chain: GSKIQVKCSAPNSVTITNASGGLYLVEYPEGYVAYSKATEVTGKLVHANFGTKKDFEDLDYAVNGSIVIVRAGKITIAEKVANAQSFNAIGVLIYKDRTKYPISRADEPLQGHSGLPSIPVQTISREAAEKLFQNMERDCPRSWNTDSSCKLELLQNRNVKLTVNNCLKE
As to B1, the Kd – broadly, the equilibrium constant for the complex coming apart – in test [3] was 360 nM; in test [4] it was 1000 nM.
